Patent publication US20220339183

Biological target: human non-mutant tau (transgene of Alz17 mice), P10636
Sequence (P10636 whole entry, looked up, change not shown): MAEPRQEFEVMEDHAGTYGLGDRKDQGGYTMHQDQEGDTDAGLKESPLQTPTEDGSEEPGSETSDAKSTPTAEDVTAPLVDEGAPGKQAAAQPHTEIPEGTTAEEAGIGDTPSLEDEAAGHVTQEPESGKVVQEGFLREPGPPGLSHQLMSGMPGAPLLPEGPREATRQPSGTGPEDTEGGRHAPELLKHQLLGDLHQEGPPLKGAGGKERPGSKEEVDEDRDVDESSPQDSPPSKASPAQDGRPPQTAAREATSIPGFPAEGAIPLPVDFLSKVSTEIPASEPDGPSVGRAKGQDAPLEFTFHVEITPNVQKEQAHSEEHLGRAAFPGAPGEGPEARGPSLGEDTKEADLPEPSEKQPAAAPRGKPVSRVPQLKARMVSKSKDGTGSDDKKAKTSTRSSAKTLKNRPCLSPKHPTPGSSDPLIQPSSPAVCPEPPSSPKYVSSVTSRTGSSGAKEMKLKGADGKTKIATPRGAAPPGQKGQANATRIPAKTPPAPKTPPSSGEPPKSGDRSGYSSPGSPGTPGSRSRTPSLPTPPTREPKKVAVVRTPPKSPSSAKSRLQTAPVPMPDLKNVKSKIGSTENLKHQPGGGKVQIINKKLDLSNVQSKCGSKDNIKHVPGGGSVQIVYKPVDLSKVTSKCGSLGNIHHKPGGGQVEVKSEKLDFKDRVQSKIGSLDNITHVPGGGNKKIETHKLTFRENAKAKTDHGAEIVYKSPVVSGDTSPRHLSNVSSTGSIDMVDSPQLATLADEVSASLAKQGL

Protein | Western blotting of synaptosome preparations from mouse brains for pT205 tau | Immunofluorescence staining of brains with antibodies to tau and tau phosphorylated at T205
endogenous mouse p38γ (protein) MSSPPPARKGFYRQEVTKTAWEVRAVYQDLQPVGSGAYGAVCSAVDSRTGNKVAIKKLYRPFQSELFAKRAYRELRLLKHMRHENVIGLLDVFTPDESLDDFTDFYLVMPFMGTDLGKLMKHETLSEDRIQFLVYQMLKGLKYIHAAGVIHRDLKPGNLAVNEDCELKILDFGLARQADSEMTGYVVTRWYRAPEVILNWMRYTQTVDIWSVGCIMAEMITGKILFKGNDHLDQLKEIMKITGTPPPEFVQKLQSAEAKNYMEGLPELEKKDFASVLTNASPQAVNLLERMLVLDAEQRVTAAEALTHPYFESLRDTEDEPKAQKYDDSFDDVDRTLEEWKRVTYKEVLSFKPPRQLGARVPKETAL | phosphorylation of tau at T205 was no longer detectable in Alz17.p38γ^-/- mice that also lacked p38γ in their post-synapses | 
constitutively active p38γ (p38γ^CA; p38γ Asp179Ala), HA-tagged (protein) MSSPPPARSGFYRQEVTKTAWEVRAVYRDLQPVGSGAYGAVCSAVDGRTGAKVAIKKLYRPFQSELFAKRAYRELRLLKHMRHENVIGLLDVFTPDETLDDFMDFYLVMPFMGTDLGKLMKHEKLGEDRIQFLVYQMLKGLRDLKPGNLAVNEDCELKILDFGLARQAASEMTGYVVTRWYRAPEVILNWMRYTQTVDIWSVGCIMAEMITGKTLFKGSDHLDQLKEIMKVTGTPPAEFVQRLQSDEAKNYMKGLPELEKKDFASILTNASPLAVNLLEKMLVLDAEQRVTAGEALAHPYFESLHDTEDEPQVQKYDDSFDDVDRTLDEWKRVTYKEVLSFKPPRQLGARVSKETPL | increased phosphorylation of tau at T205 in the post-synapse of Alz17.p38γ^CA mice as compared with Alz17.p38γ^+/+ controls | increased T205 tau phosphorylation in Alz17.p38γ^CA mice compared with Alz17 mice
